Laboratory results published in article PMC12746149, “Gluebodies Offer a Route To Improve Crystal Reliability and Diversity through Transferable Nanobody Mutations That Introduce Constitutive Close Contacts” (ACS Central Science, 2025).
Where two headings read alike, the source gives them in different places.

How the values were obtained:
[1] = target: T1, MPP8 chromodomain (residues 53-117) (UniProt Q99549); test: crystal structure; MPP8 and 3A02 gluebody combined 1:1.2, complex isolated on Superdex 75 in 20 mM Hepes pH 7.5, 80 mM NaCl; vapor diffusion at 18 °C, 100 mM sodium acetate, 25% PEG 3000; settings: both partners purified
T1 construct: MPP8, the region corresponding to the chromodomain, residues 53-117, in a modified pET30 vector; not shown: His tag, N-terminal, cleaved

MAGEB1 [2] = target: T2, MAGEB1 (UniProt P43366); test: crystal structure; nanobody-target complex in two commercial coarse screens (192 conditions, two temperatures); settings: both partners purified
T2 construct: MAGEB1

[3] = target: T3, truncated RECQL5 protein (11-453) (UniProt O94762); test: crystal structure; RECQL5 and nanobody mixed 1:1.5, complex isolated by SEC, Hampton Index screen; molecular replacement with PDB 5LB8 and chain A of 2X1O; settings: both partners purified
T3 construct: RECQL5, residues 11-453, in pNIC-Bsa4; source: E. coli BL21-DE3-pRARE, purified (Ni-NTA, TEV cleavage, reverse Ni-NTA); not shown: His6, N-terminal, cleaved

MAGEB1 [4] = target: T2, MAGEB1
[5] = target: T3, truncated RECQL5 protein (11-453); test: SEC; purified nanobody variants run with RECQL5 on size exclusion chromatography; comigration; settings: both partners purified

T3 sequence (O94762 11-453): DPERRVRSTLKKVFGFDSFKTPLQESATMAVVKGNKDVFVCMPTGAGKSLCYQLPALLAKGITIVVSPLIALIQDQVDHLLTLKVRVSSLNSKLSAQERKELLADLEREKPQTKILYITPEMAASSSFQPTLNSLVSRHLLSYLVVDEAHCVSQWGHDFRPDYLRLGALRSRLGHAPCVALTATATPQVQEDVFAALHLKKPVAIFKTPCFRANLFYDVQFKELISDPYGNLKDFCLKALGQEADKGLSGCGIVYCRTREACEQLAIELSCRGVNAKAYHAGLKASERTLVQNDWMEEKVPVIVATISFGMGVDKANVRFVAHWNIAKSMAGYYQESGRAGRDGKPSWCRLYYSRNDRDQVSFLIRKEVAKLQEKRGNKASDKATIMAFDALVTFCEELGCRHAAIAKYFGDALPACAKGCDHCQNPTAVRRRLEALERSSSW
T2 sequence (P43366 whole entry): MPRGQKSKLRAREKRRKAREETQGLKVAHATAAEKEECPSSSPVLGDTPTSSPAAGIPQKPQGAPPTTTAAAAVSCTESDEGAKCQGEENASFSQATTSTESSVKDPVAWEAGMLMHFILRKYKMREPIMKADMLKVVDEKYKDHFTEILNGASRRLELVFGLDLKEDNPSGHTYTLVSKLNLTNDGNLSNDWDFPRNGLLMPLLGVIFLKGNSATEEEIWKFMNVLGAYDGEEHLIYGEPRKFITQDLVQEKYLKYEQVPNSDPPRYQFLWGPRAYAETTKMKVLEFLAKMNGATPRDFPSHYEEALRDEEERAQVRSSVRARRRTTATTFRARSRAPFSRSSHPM
T1 sequence (Q99549 53-117): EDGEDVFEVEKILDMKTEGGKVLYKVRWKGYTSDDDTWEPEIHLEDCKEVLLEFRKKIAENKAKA

Binder	binding result [3]	also measured
3A02 gluebody (Nb 3A02 nanobody with the Gluebody mutations S7N, Q14K and T125M) (VHH, Nb 3A02 with three stated mutations; the mutated chain is in PDB 9H77; also called Gb; not shown: His tag, N-terminal, cleaved) VHH: QVQLQENGGGLVKPGGSLRLSCAASGFTLSDYVMTWVRQAPGKGPEWVSRISAGGSTRYVDSVKGRFTISRDNAKNTMYLQMNSLKPEDTAVYYCARGSTLFSTNWDYRGQGTQVMVS	–	binding result [1]: binds
nanobody of the MAGEB1 complex (PDB 6R7T) (VHH, naïve (not engineered) nanobody scaffold) VHH: QVQLQESGGGLVQPGGSLRLSCAASGFTFSTYAMSWFRQAPGKGLEWVASINSSGGGIQSYADSVKGRFTISRDNAKNTLYLQMNSLEPEDTAVYYCAAAAWRVGTYDYRGQGTQVTVSS	–	binding result (MAGEB1 [2]): binds
RECQL5 nanobody variant G4-043 (VHH, the mutated chain is in PDB 7ZMS; numbers count on: IMGT numbering; G4 and G5 constructs were amplified from the synthesised DNA fragments with a different set of primers; source: E. coli KRX, purified (Ni-NTA, TEV cleavage, reverse Ni-NTA); not shown: MBP (inferred from the G3 scaffold), N-terminal, cleaved; His6 (inferred from the G3 scaffold), N-terminal, cleaved) VHH: QVQLVENGGGCVQATGSLRLSCAASGSIFSINRMTWYRQAPGKEREWVAAITSGGSTNYADSVKGRFTISRDSAKGTVYLQMNSLKPEDTAVYYCEAYGTYTLAPTGEGEYDDYWGQGTQVMVS	binds	–
RECQL5 nanobody variant G3-048 (VHH, the mutated chain is in PDB 7ZMN; numbers count on: IMGT numbering; synthesised DNA in pNIC-MBP2-LIC; no ENLYFQ tail; source: E. coli KRX, purified (Ni-NTA, TEV cleavage, reverse Ni-NTA); not shown: MBP, N-terminal, cleaved; His6, N-terminal, cleaved) VHH: QVQLVENGGGCVQATGSLRLSCAASGSIFSINRMTWYRQAPGKEREWVAAITSGGSTNYADSVKGRFTISRDSAKGTVYLQMNSLKPEDTAVYYCEAYGTYTLAPTGEGEYDDYWGQGTQVTVS	binds	–
RECQL5 nanobody variant G2*-006 (VHH, the mutated chain is in PDB 7ZMQ; source: E. coli KRX, purified (Ni-NTA, TEV cleavage, reverse Ni-NTA); not shown: MBP (from the vector pNIC-MBP2-LIC), N-terminal, cleaved; His6 (from the vector pNIC-MBP2-LIC), N-terminal, cleaved) VHH: QVQLVENGGGNVQAGGSLRLSCAASGSIFSINRMTWYRQAPGKEREWVAAITSGGSTNYAYSVKGRFTISRDNAKNTVYLQMNSLKPEDTAVYYCEAYGTYTLAPTGEGEYDDYWGQGTQVTVS	binds	–
RECQL5 nanobody variant G3-052 (VHH, the mutated chain is in PDB 7ZMO; numbers count on: IMGT numbering; synthesised DNA in pNIC-MBP2-LIC; no ENLYFQ tail; source: E. coli KRX, purified (Ni-NTA, TEV cleavage, reverse Ni-NTA); not shown: MBP, N-terminal, cleaved; His6, N-terminal, cleaved) VHH: QVQLVENGGGCVQAGGSLRLSCAASGSIFSINRMTWYRQAPGKEREWVAAITSGGSTNYADSVKGRFTISRDSAKGTVYLYMNSLKPEDTAVYYCEAYGTYTLAPTGEGEYDDYWGQGTQVTVS	binds	–
RECQL5 nanobody variant G2*-011 (VHH, the mutated chain is in PDB 7ZMR; source: E. coli KRX, purified (Ni-NTA, TEV cleavage, reverse Ni-NTA); not shown: MBP (from the vector pNIC-MBP2-LIC), N-terminal, cleaved; His6 (from the vector pNIC-MBP2-LIC), N-terminal, cleaved) VHH: QVQLVENGGGCVQAGGSLKLSCAASGSIFSINRMTWYRQAPGKEREWVAAITSGGSTNYAYSVKGRFTISRDNAKNTVYLQMNSLKPEDTAVYYCEAYGTYTLAPTGEGEYDDYWGQGTQVTVS	binds	–
YNMAGEB1A-c001 (VHH) VHH: QVQLQESGGGLVQAGGSLRLSCAASGFTFDDYAIGWFRQVPGKEREGVSCTSSSVGSTYYADSVKGRFTITSDNAKNTVYLQMNSLKPEDTAVYYCAADSYPYGSTWCRPPFFASWGQGTQVTVS	–	binding result (MAGEB1 [4]): binds
RECQL5 nanobody variant G1-001 (VHH, the mutated chain is in PDB 7ZML; numbers count on: IMGT numbering; six-residue tail left after TEV cleavage of the C-terminal 6xHis tag; vector pNIC-CTH0; source: E. coli KRX, purified (Ni-NTA, TEV cleavage, reverse Ni-NTA); not shown: His6, C-terminal, cleaved) VHH: QVQLQESGGGLVQAGGSLRLSCAASGSIFSINRMGWYRQAPGKQRELVAAITSGGSTNYAYSVKGRFTISRDNAKNTVYLQMNSLKPEDTAIYYCEAYGTYTLAPTGEGEYDDYWGQGTQVTVSA	–	binding result [5]: binds
RECQL5 nanobody variant G2-001 (VHH, as the chain of m3 (G1-001, D69Y) with S7N:L12C; the mutated chain is in PDB 7ZMM; numbers count on: IMGT numbering; six-residue tail left after TEV cleavage of the C-terminal 6xHis tag; vector pNIC-CTH0; made by mutagenesis from G1-001; source: E. coli KRX, purified (Ni-NTA, TEV cleavage, reverse Ni-NTA); not shown: His6, C-terminal, cleaved) VHH: QVQLQENGGGCVQAGGSLRLSCAASGSIFSINRMGWYRQAPGKQRELVAAITSGGSTNYAYSVKGRFTISRDNAKNTVYLQMNSLKPEDTAIYYCEAYGTYTLAPTGEGEYDDYWGQGTQVTVSA	binds	–
